From US20240299546A1

Experiments:
[1] = biological target: HLA-A1-MAGE-A3 pMHC (human); experiment: SPR, biotinylated HLA-A1-MAGE-A3 on streptavidin chip, soluble TCR flowed
[2] = biological target: HLA-A1-TITIN pMHC (human); experiment: SPR, biotinylated HLA-A1-TITIN on streptavidin chip, soluble TCR flowed

Kd [1]: 1240 nM
Kd [2]: 7.7 µM
B1: A3A TCR (TCR, V domains shown)
V domain 1: KQEVTQIPAALSVPEGENLVLNCSFTDSAIYNLQWFRQDPGKGLTSLLLVRPYQREQTSGRLNASLDKSSGRSTLYIAASQPGDSATYLCAVRPGGAGSYQLTFGKGTKLSVIP
V domain 2: KAGVTQTPRYLIKTRGQQVTLSCSPISGHRSVSWYQQTPGQGLQFLFEYFSETQRNKGNFPGRFSGRQFSNSRSEMNVSTLELGDSALYLCASSPNMADEQYFGPGTRLTVTE
